Experiments:
[1] = Percent elution of IFN entrapped onto HAP in PBS containing 20% FCS; format: physicochemical; conditions: 37° C., 16 hours
Description: 45 mg of porous hydroxyapatite (HAP) was accurately weighed. 30 μg of IFN from a 2.4 mg/ml interferon a (IFN) solution was added thereto, and the mixture was allowed to stand for 10 minutes. […] This dispersion was washed by addition of 1.5 ml of water. When IFN in the washed solution was quantitatively determined, IFN was not detected. Specifically, all IFN was confirmed to be entrapped on HAP. In this manner, a microparticle preparation on which IFN as a protein was entrapped could be obtained without using an organic solvent. After the washing, 20 ml of a PBS solution containing FCS in an amount of 20% was added to the resulting powder, and the mixture was shaken at 37° C. for 16 hours. IFN eluted in the supernatant liquid was quantitatively determined to calculate the percent elution.

[2] = Entrapment of IFN on HAP (IFN in the washed solution); format: physicochemical; conditions: 30 μg IFN on 45 mg HAP, 20 mM zinc acetate, washed with 1.5 ml water
Description: 45 mg of porous hydroxyapatite (HAP) was accurately weighed. 30 μg of IFN from a 2.4 mg/ml interferon a (IFN) solution was added thereto, and the mixture was allowed to stand for 10 minutes. Then, 1 ml of a 20 mM/1 ml zinc acetate solution was added thereto, and the mixture was shaken for 30 minutes. This dispersion was washed by addition of 1.5 ml of water. When IFN in the washed solution was quantitatively determined, IFN was not detected. Specifically, all IFN was confirmed to be entrapped on HAP. In this manner, a microparticle preparation on which IFN as a protein was entrapped could be obtained without using an organic solvent. After the washing, 20 ml of a PBS solution containing FCS in an amount of 20% was added to the resulting powder, and the mixture was shaken at 37° C. for 16 hours. IFN eluted in the supernatant liquid was quantitatively determined to calculate the percent elution.

[3] = Effect of Zn concentration on sustained release of IFN-HAp preparation (IFN α blood level, Example 3); format: in vivo, ddy mouse; conditions: IFN α/HSA/CS in HAp, freeze-dried, subcutaneous, 4 hours and 1 to 7 days, FIG. 3
Description: 0.06 ml of 0.937 mg/ml IFN α, 0.3 ml of 20 mg/ml HSA, 0.03 ml of 20 mg/ml CS, and 1.22 ml of H2O were added to prepare a solution. 200 mg of HAp sintered at 180° C. was added on this solution. A protein was entrapped in HAp by stirring, and then 10 ml of H2O was added. The mixture was lightly stirred and centrifuged at 3,000 rpm for five minutes.
The deposit was freeze-dried and divided in two. 1 ml of a 20 mM Zn(CH3COO)2/5% mannitol solution was added to one division, while 1 ml of a 5 mM Zn(CH3COO)2/5% mannitol solution was added to the other division.
As a control, 0.015 ml of 0.937 mg/ml IFN α, 0.075 ml of 20 mg/ml HSA, 0.66 ml of H2O and 0.25 ml of 20% mannitol were added to prepare an IFN α (free) solution.
(§1) 0.7 ml of the sample prepared above was subcutaneously administered to a seven-week-old male ddy mouse (weight: 31 to 33 g, SLC, Japan). Four hours and one to seven days after the administration, blood was collected from the orbit of the mouse. The IFN α concentration in this blood was determined using an ELISA kit (Biosource).

[4] = IFN α blood level after subcutaneous administration of IFN α-HAp preparation (Example 2); format: in vivo, ddy mouse; conditions: IFN α with HSA, chondroitin sulfate and Zn(CH3COO)2 in HAp sintered at 180° C., 4 hours and 1 to 10 days, ELISA, FIG. 2
Description: 0.854 ml of 225 μg/ml IFN α (interferon α, Sumitomo Pharmaceuticals) and 1.2 ml of 20 mg/ml HSA were mixed to prepare a protein-mixed solution. 0.856 ml of the protein-mixed solution was mixed with 200 mg of HAp sintered at 180° C., and the mixture was stirred to entrap a protein in HAp. 0.05 ml of 20 mg/ml chondroitin sulfate (CS, from Wako), 0.074 ml of H2O, and 0.02 ml of 1 M Zn(CH3COO)2 were sequentially added thereto. The mixture was centrifuged at 15,000 rpm for five minutes. 2 ml of a 20 mM Zn(CH3COO)2/5% mannitol solution was added to the deposit to prepare a sample.
As a control, 0.644 ml of H2O and 0.5 ml of 20% mannitol were added to 0.856 ml of an IFN α-containing protein-mixed solution to prepare an IFN α (free) solution.
as §1, with “0.5” for “0.7”, “an eight-week-old” for “a seven-week-old”, “33” for “31”, “40” for “33”, “ten” for “seven”

[5] = prior-art two-component apatite particles; cited from earlier work
[6] = Adsorption of G-CSF on hydroxyapatite particles without zinc; format: physicochemical; conditions: 40 mg hydroxyapatite particles, 100 μl of G-CSF solution (100 μg/ml), no zinc; eluted with pH 4 acetic acid buffer; ELISA
Description: 40 mg of hydroxyapatite particles were immersed in 100 μl of a G-CSF solution (100 μg/ml) for 10 minutes. Then, 900 μl of purified water was added, and the mixture was stirred and centrifuged. Then, the supernatant liquid was discarded. Purified water was added to the precipitate again, and the mixture was stirred and centrifuged to remove the excessive G-CSF.
The precipitate was suspended in a pH 4 acetic acid buffer to elute G-CSF. After centrifugation, the amount of G-CSF in the supernatant liquid was determined by ELISA to determine the amount of G-CSF adsorbed. Almost no adsorption was observed (0.1 μg or less).

[7] = Adsorption of G-CSF on hydroxyapatite preliminarily treated with zinc acetate; format: physicochemical; conditions: for Amount of adsorbed G-CSF / Amount of free G-CSF: 10 mg hydroxyapatite bound with zinc
Description: Then, the following procedure was conducted to attempt adsorption of zinc on hydroxyapatite particles and adsorption of G-CSF on the particles. 10 mg of hydroxyapatite was suspended in 200 μl of zinc acetate (5 mg/ml). The suspension was allowed to stand for 10 minutes at room temperature, and then centrifuged at 10,000 rpm for 10 minutes to discard the supernatant liquid. The precipitate was suspended in 500 μl of purified water. The suspension was allowed to stand for 10 minutes at room temperature, and then centrifuged at 10,000 rpm for 10 minutes to discard the supernatant liquid. After the sediment was suspended and centrifuged again, the supernatant liquid was discarded. This precipitate was suspended in 0.5 ml of a 200 μg/ml or 1,000 μg/ml G-CSF solution. The suspension was allowed to stand for 10 minutes, and then centrifuged at 10,000 rpm for 10 minutes. The amount of G-CSF in the supernatant liquid was determined by an ELISA method. Further, G-CSF entrapped in hydroxyapatite was eluted from the precipitate using 0.1 M EDTA and a 1% HAS solution, and the eluate was centrifuged. Then, the G-CSF concentration in the supernatant liquid was determined by an ELISA method to determine the amount of G-CSF adsorbed on hydroxyapatite.

[8] = In vitro release test of G-CSF from HAp in PBS, embolized versus not embolized; format: physicochemical; conditions: embolized (HSA, CaCl2, then Na2CO3) versus not embolized, room temperature, ELISA, FIG. 4
Description: 100 μl of a preliminarily mixed solution of G-CSF (3 μg/ml), HSA (30 μg/ml), and CaCl2 (280 mg/ml) was added to 50 mg of HAp sintered at 180° C. The mixture was stirred using a vortex mixer for three minutes, allowed to stand for five minutes, and freeze-dried. 100 μl of a 220 mg/ml Na2CO3 solution was added to the resulting particles, and the mixture was stirred using a vortex mixer for three minutes. After further addition of 100 μl of water, the mixture was lightly stirred. A part of the mixture was collected for ELISA determination. The remaining part was centrifuged at 1,000 rpm for three minutes to collect the supernatant liquid. 2 ml of PBS was added to the deposit, and the mixture was lightly shaken at room temperature. After 0 hour and 0.5 hour, respectively, the supernatant liquid was collected. Further, 10 ml of PBS was added to the deposit, and the mixture was shaken at room temperature. After 0 hour and 0.5 hour, respectively, the supernatant liquid was collected. The final deposit and the supernatant liquids obtained on the way were subjected to determination using an ELISA kit (IBL). The final deposit was dissolved in 1% BSA/Tris-HCl (pH 5) and used for the ELISA determination. The results are shown in FIG. 4-A. 200 μl of a 1.5 μg/ml G-CSF solution was added to 50 mg of HAp to fill the pores, and 2 ml of PBS was added further. The same release test was conducted.

[9] = PC-BDNF blood level after subcutaneous administration of PC-BDNF-HAp preparation; format: in vivo, ddy mouse; conditions: PC-BDNF in HAp sintered at 180° C. with HSA and 5 mM Zn(CH3COO)2/5% mannitol, 2 hours to 4 days, ELISA, FIG. 1
Description: 66 μl of a 4.54 mg/ml PC-BDNF (lecithinized BDNF) solution was added to 20 mg of porous hydroxyapatite microparticles (HAp) sintered at 180° C., and the mixture was stirred using a vortex mixer for one minute. 434 μl of a 0.1% HSA solution was added thereto, and the mixture was stirred again for one minute. The mixture was allowed to stand for three minutes, and then centrifuged at 1,000 rpm for three minutes to remove the supernatant liquid. 500 μl of a 5 mM Zn(CH3COO)2/5% mannitol solution was added to the deposit, and the mixture was stirred to prepare a sample. As a control, a sample in which 66 μl of a 4.54 mg/ml PC-BDNF solution was mixed with 434 μl of 5% mannitol was also prepared. 500 μl of each sample was subcutaneously administered to a six-week-old male ddy mouse. Two hours, seven hours, 17 hours, one day, two days, and four days after the administration, blood was collected from the orbit to determine the PC-BDNF blood level using an ELISA kit (Promega).

IFN α
Eluted IFN (%) ([1]; Zinc acetate 0 mM): 92%
Eluted IFN (%) ([1]; Zinc acetate 20 mM): 87%
IFN in the washed solution [2]: not detected
IFN α blood level ([3]; zinc 5 mM): sufficiently increased, but was reduced comparatively rapidly
IFN α blood level ([3]; zinc 20 mM): not sufficiently increased, but IFN α was released slowly for a long time
IFN α concentration in blood, sustained-release effect [4]: excellent sustained-release effect

hGH: human growth hormone, on prior-art apatite particles
Amount of hGH adsorbed on the apatite particles (entrapped amount) [5]: ≤ 1%

B1: G-CSF: G-CSF protein loaded into or adsorbed on hydroxyapatite microparticles (protein, UniProt P09919 31-207, looked up)
Granulocyte …: TPLGPASSLPQSFLLKCLEQVRKIQGDGAALQEKLVSECATYKLCHPEELVLLGHSLGIPWAPLSSCPSQALQLAGCLSQLHSGLFLYQGLLQALEGISPELGPTLDTLQLDVADFATTIWQQMEELGMAPALQPTQGAMPAFASAFQRRAGGVLVASHLQSFLEVSYRVLRHLAQP
modifications: adsorbed on hydroxyapatite microparticles
Amount of G-CSF adsorbed [6]: ≤ 0.1 µg
Amount of adsorbed G-CSF ([7]; total amount of G-CSF 100 μg): 86.4 µg
Amount of free G-CSF ([7]; total amount of G-CSF 100 μg): 0.4 µg
Amount of adsorbed G-CSF ([7]; total amount of G-CSF 500 μg): 400.0 µg
Amount of free G-CSF ([7]; total amount of G-CSF 500 μg): 90.0 µg
Maximum amount of G-CSF adsorbed ([7]; on 10 mg of hydroxyapatite): 400 µg
Release of G-CSF from HAp [8]: release was remarkably suppressed

B2: PC-BDNF: lecithinized BDNF; tested entrapped in HAp with HSA and zinc acetate (PC-BDNF-HAp preparation) (conjugate, UniProt P23560 19-247, looked up)
Neurotrophic factor BDNF …: APMKEANIRGQGGLAYPGVRTHGTLESVNGPKAGSRGLTSLADTFEHVIEELLDEDQKVRPNEENNKDADLYTSRVMLSSQVPLEPPLLFLLEEYKNYLDAANMSMRVRRHSDPARRGELSVCDSISEWVTAADKKTAVDMSGGTVTVLEKVPVSKGQLKQYFYETKCNPMGYTKEGCRGIDKRHWNSQCRTTQSYVRALTMDSKKRIGWRFIRIDTSCVCTLTIKRGR
modifications: lecithinized; entrapped in hydroxyapatite
PC-BDNF blood level, sustained-release effect [9]: excellent sustained-release effect
